Experimental findings from the supplement of paper PMC10567573 are described below.

The labels stand for the following.
B1: MIA2 (parent)
chain: DMVSNIELPTRIHEEVYFEPSSSK
B2: DULLARD (parent)
chain: LVVFTASMEIYGSAVADKLDNSRS
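Also: lentivirally expressed fusions sorted by FACS into six bins by GFP to DsRed ratio, PSI derived from sequencing read proportions per bin multiplied by bin number.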

In one data set the parent is B1. The data set can be described thus: protein stability index of a GFP-peptide fusion (GPS, HEK-293T) (PSI 1-6); higher = more stable. Conditions: c terminus: a fixed tail appended.
Regarding DMVSNIELPTRIHEEVYFEPSTSK [S22T], the protein stability index is 4.03. Still for that read-out and setting: the result for DMVSNIELPTRIHEEVYFEPSVSK [S22V] reads 3.95.

On to DMVSNIELPTRIHEEVYFEPSCSK [S22C], for which the protein stability index was 3.89.

Consider DMVSNIELPTRIHEEVYFEPSNSK [S22N], for which the protein stability index came out at 4.12.

For DMVSNIELPTRIHEEVYFEPSESK [S22E], the protein stability index was found to be 4.13. Regarding DMVSNIELPTRIHEEVYFEPSPSK [S22P], the protein stability index turned out to be 4.02. Same read-out and setting: then DMVSNIELPTRIHEEVYFEPSASK [S22A], with 4.28.

For the variant DMVSNIELPTRIHEEVYFEPSFSK [S22F], the protein stability index was found to be 3.37. With DMVSNIELPTRIHEEVYFEPSYSK [S22Y], the protein stability index came to 3.08.

Regarding DMVSNIELPTRIHEEVYFEPSHSK [S22H], the protein stability index is 4.35. Take DMVSNIELPTRIHEEVYFEPSGSK [S22G]: the protein stability index was found to be 3.85. The same measure, in the same setting: then DMVSNIELPTRIHEEVYFEPSMSK [S22M], with 3.81; and DMVSNIELPTRIHEEVYFEPSISK [S22I], with 3.13.

For DMVSNIELPTRIHEEVYFEPSKSK [S22K], the protein stability index is 3.9. Still for that read-out and setting: then DMVSNIELPTRIHEEVYFEPSRSK [S22R], with 3.73; and DMVSNIELPTRIHEEVYFEPSDSK [S22D], with 4.25. On the same count and under the same terms, then DMVSNIELPTRIHEEVYFEPSWSK [S22W], with 3.17. Same read-out and setting: then DMVSNIELPTRIHEEVYFEPSLSK [S22L], with 2.58; and DMVSNIELPTRIHEEVYFEPSQSK [S22Q], with 4.13.

As for DMVSNIELPTRIHEEVYFEPYSSK [S21Y], the protein stability index was found to be 3.05.

Turning to DMVSNIELPTRIHEEVYFEPVSSK [S21V], the protein stability index was 3.94.

Consider DMVSNIELPTRIHEEVYFEPTSSK [S21T], for which the protein stability index stood at 3.75.

Regarding DMVSNIELPTRIHEEVYFEPWSSK [S21W], the protein stability index came to 3.38. In the case of DMVSNIELPTRIHEEVYFEPSSSQ [K24Q], the protein stability index came to 4.89. Regarding DMVSNIELPTRIHEEVYFEPSSSG [K24G], the protein stability index amounted to 4.55. Take DMVSNIELPTRIHEEVYFEPSSSL [K24L]: the protein stability index is 3.84. Take DMVSNIELPTRIHEEVYFEPSSSY [K24Y]: the protein stability index was determined as 3.32. On to DMVSNIELPTRIHEEVYFEPSSSP [K24P], for which the protein stability index is 4.08. Same read-out and setting: the result for DMVSNIELPTRIHEEVYFEPSSSE [K24E] reads 4.11; that for DMVSNIELPTRIHEEVYFEPSSSS [K24S], 3.95; that for DMVSNIELPTRIHEEVYFEPSSSM [K24M], 3.57. Turning to DMVSNIELPTRIHEEVYFEPSSSH [K24H], the protein stability index came to 3.56.

In the case of DMVSNIELPTRIHEEVYFEPSSST [K24T], the protein stability index came out at 4.02. For the variant DMVSNIELPTRIHEEVYFEPSSSA [K24A], the protein stability index stood at 3.64. The same measure, in the same setting: the result for DMVSNIELPTRIHEEVYFEPSSSN [K24N] reads 4.17; that for DMVSNIELPTRIHEEVYFEPSSSR [K24R], 3.85; that for DMVSNIELPTRIHEEVYFEPSSSI [K24I], 2.98. DMVSNIELPTRIHEEVYFEPSSSC [K24C]: the protein stability index stood at 3.66. As to DMVSNIELPTRIHEEVYFEPSSSV [K24V], the protein stability index was found to be 3.51. The same measure, in the same setting: then DMVSNIELPTRIHEEVYFEPSSSW [K24W], with 2.52. The same measure, in the same setting: then DMVSNIELPTRIHEEVYFEPSSSF [K24F], with 3.28. On the same count and under the same terms, the result for DMVSNIELPTRIHEEVYFEPSSQK [S23Q] reads 4.41; that for DMVSNIELPTRIHEEVYFEPSSDK [S23D], 4.84. With DMVSNIELPTRIHEEVYFEPSSFK [S23F], the protein stability index amounted to 3.11. Still for that read-out and setting: then DMVSNIELPTRIHEEVYFEPSSMK [S23M], with 3.29; and DMVSNIELPTRIHEEVYFEPSSGK [S23G], with 4.28; and DMVSNIELPTRIHEEVYFEPSSVK [S23V], with 3.82. Still for that read-out and setting: the result for DMVSNIELPTRIHEEVYFEPSSHK [S23H] reads 3.96; that for DMVSNIELPTRIHEEVYFEPSSRK [S23R], 3.56; that for DMVSNIELPTRIHEEVYFEPSSKK [S23K], 3.65. Still for that read-out and setting: then DMVSNIELPTRIHEEVYFEPSSEK [S23E], with 5.16; and DMVSNIELPTRIHEEVYFEPSSAK [S23A], with 3.2; and DMVSNIELPTRIHEEVYFEPSSIK [S23I], with 3.89. Turning to DMVSNIELPTRIHEEVYFEPSSNK [S23N], the protein stability index is 3.98. Take DMVSNIELPTRIHEEVYFEPSSLK [S23L]: the protein stability index came out at 3.49. Same read-out and setting: then DMVSNIELPTRIHEEVYFEPSSTK [S23T], with 3.92.

With DMVSNIELPTRIHEEVYFEPSSYK [S23Y], the protein stability index is 4.18. With DMVSNIELPTRIHEEVYFEPSSWK [S23W], the protein stability index turned out to be 3.08. The same measure, in the same setting: the result for DMVSNIELPTRIHEEVYFEPSSPK [S23P] reads 3.67.

On to DMVSNIELPTRIHEEVYFEPSSCK [S23C], for which the protein stability index came out at 4.

The variants in the next data set derive from B2. The description is as above. The note with it: c terminus: a fixed tail appended.
In the case of RVVFTASMEIYGSAVADKLDNSRS [L1R], the protein stability index turned out to be 2.49. In the case of TVVFTASMEIYGSAVADKLDNSRS [L1T], the protein stability index was 1.82. Turning to SVVFTASMEIYGSAVADKLDNSRS [L1S], the protein stability index came to 1.94. The same measure, in the same setting: then EVVFTASMEIYGSAVADKLDNSRS [L1E], with 2.25; and YVVFTASMEIYGSAVADKLDNSRS [L1Y], with 2.57; and QVVFTASMEIYGSAVADKLDNSRS [L1Q], with 2.52. On the same count and under the same terms, then MVVFTASMEIYGSAVADKLDNSRS [L1M], with 2.29; and PVVFTASMEIYGSAVADKLDNSRS [L1P], with 3.74.

Consider DVVFTASMEIYGSAVADKLDNSRS [L1D], for which the protein stability index worked out at 2.44. Consider FVVFTASMEIYGSAVADKLDNSRS [L1F], for which the protein stability index came to 2. Same read-out and setting: the result for KVVFTASMEIYGSAVADKLDNSRS [L1K] reads 2.09; that for HVVFTASMEIYGSAVADKLDNSRS [L1H], 1.19; that for VVVFTASMEIYGSAVADKLDNSRS [L1V], 3.46. Same read-out and setting: then AVVFTASMEIYGSAVADKLDNSRS [L1A], with 1.73; and NVVFTASMEIYGSAVADKLDNSRS [L1N], with 2.9. Still for that read-out and setting: the result for CVVFTASMEIYGSAVADKLDNSRS [L1C] reads 1.94; that for GVVFTASMEIYGSAVADKLDNSRS [L1G], 2.31; that for LVVFRASMEIYGSAVADKLDNSRS [T5R], 2.6. Turning to LVVFSASMEIYGSAVADKLDNSRS [T5S], the protein stability index was found to be 3.15. In the case of LVVFEASMEIYGSAVADKLDNSRS [T5E], the protein stability index turned out to be 2.

Consider LVVFQASMEIYGSAVADKLDNSRS [T5Q], for which the protein stability index is 2.37. As to LVVFNASMEIYGSAVADKLDNSRS [T5N], the protein stability index turned out to be 1.76.

Consider LVVFMASMEIYGSAVADKLDNSRS [T5M], for which the protein stability index stood at 3.54. As to LVVFHASMEIYGSAVADKLDNSRS [T5H], the protein stability index was determined as 1.99. The same measure, in the same setting: the result for LVVFDASMEIYGSAVADKLDNSRS [T5D] reads 2.09; that for LVVFFASMEIYGSAVADKLDNSRS [T5F], 2.49; that for LVVFAASMEIYGSAVADKLDNSRS [T5A], 2.22. Still for that read-out and setting: the result for LVVFPASMEIYGSAVADKLDNSRS [T5P] reads 1.66. Same read-out and setting: then LVVFVASMEIYGSAVADKLDNSRS [T5V], with 3.31; and LVQFTASMEIYGSAVADKLDNSRS [V3Q], with 2.62; and LVDFTASMEIYGSAVADKLDNSRS [V3D], with 3.23. As to LVSFTASMEIYGSAVADKLDNSRS [V3S], the protein stability index was determined as 1.86.

Take LVMFTASMEIYGSAVADKLDNSRS [V3M]: the protein stability index was 3.28. Same read-out and setting: then LVKFTASMEIYGSAVADKLDNSRS [V3K], with 2.
